Data set [1] deals with the molecule itself. Kind of data set: SEC; MpCAPP-MBP on Superdex 200 10/300.
Data set [2] deals with T1, MpAgo, recombinant purified (Marinitoga piezophila, UniProt H2J4R4 1-639).
T1 construct: Argonaute, Marinitoga piezophila, expressed from pET-6His-MBP-MpAgo (Addgene, number not given); His-MBP tag removed with HRV 3C protease; source: E. coli BL21(DE3)pLysS, purified (CoHis resin, tag removal, heparin, Superdex 200)
T1 sequence (looked up): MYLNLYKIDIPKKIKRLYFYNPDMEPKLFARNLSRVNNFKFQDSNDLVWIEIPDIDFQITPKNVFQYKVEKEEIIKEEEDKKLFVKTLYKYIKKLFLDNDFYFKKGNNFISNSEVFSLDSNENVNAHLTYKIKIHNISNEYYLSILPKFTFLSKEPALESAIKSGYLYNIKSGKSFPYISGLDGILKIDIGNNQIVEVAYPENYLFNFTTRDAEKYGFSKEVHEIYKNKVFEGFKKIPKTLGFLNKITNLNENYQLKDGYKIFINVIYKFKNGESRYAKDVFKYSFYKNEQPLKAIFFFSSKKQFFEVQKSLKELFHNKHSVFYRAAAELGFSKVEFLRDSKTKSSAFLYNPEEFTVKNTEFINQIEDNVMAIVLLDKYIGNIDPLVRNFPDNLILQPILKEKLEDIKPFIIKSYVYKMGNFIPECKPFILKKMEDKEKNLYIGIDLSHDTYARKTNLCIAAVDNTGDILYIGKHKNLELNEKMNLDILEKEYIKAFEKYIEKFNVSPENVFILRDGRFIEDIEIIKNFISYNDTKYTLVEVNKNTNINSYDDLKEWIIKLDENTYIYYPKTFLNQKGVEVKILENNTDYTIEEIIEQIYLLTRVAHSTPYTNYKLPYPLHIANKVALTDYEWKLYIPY
Kind of data set: pull-down; bait MpCAPP-MBP (20 µg) pre-bound to amylose resin and washed; one prey protein (20 µg) added in 200 µl; 25 mM HEPES pH 7.5, 100 mM NaCl, 50 mM KCl, 3 mM MgCl2, 5% glycerol, 0.5 mM TCEP, 0.1% IGEPAL CA-630; 4 °C, 45 min; Coomassie-stained SDS-PAGE. As to conditions: both partners purified.

B1: MpCAPP with C-terminal MBP fusion (MpCAPP-MBP), recombinant (enzyme, Marinitoga piezophila, UniProt H2J4R1 1-546, looked up)
chain: MNFKELAFKAEEDFDFEKAIEYYKKAFNELTINDDSLIRYANLLFDFQKFEEAEPIFEKIVSEINDSEYMSKLAIIYEENNKFEKALKIYKELGIESKVKELSDKIELKAPSQNAIKRFMTLFSGREDVFSIQYEGGYRPIRRPLNFHDIKDHFSGKKTLGIYLLKKNDTVKFAAYDIDIKKHYLNREDKFVYEENSKKVAKRLSRELNLENIIHYFEFTGNRGYHIWIFFDIPVSAYKIKYIMEKILDRIELEEGIDVEIFPKQTSLNGGLGNLIKVPLGVHKKTGKKCLFVDNDFNVIENQIEFLNNIKENKATEIDKLFREIFNENDYDDFNVTYKKRTTSSKNSASKKIKSSIRKTLPKSNKNIFTQMIEGCHILKQINEKIEKEAYITEEEEMIFIKSLANLENSKKFIEMKLSQTINFSKKRIDMIIKQSLGVPITCEEIRKIILNKDISLSLENCTCKFQGNYNSPYAIVENIEEMFLDKIDINDIAKKIVEKNAEKFEIEKEIKNLKRMIAKKMGDSKELRTEIGTIKRFGDDIEIIL
notes: MpCAPP, Marinitoga piezophila, Marpi_0402 / WP_014295918.1; the MBP fusion has a size of ~108 kDa; Codon-optimised gene in Supplementary Note 4; cloning details in Supplementary Data 3; also called MpCAPP WT; CAPP WT (C-terminal MBP); source: E. coli BL21 (DE3), purified (cobalt NTA, amylose resin); not shown: MBP, C-terminal, kept
Consider B1, for which the binding result in data set [1] and in data set [2] was “binds” each time.

The record behind these values is PMC8211822, “CRISPR-Associated Primase-Polymerases are implicated in prokaryotic CRISPR-Cas adaptation” (Nature Communications, 2021).
